Source: patent publication US20210277097A1
Numbering of substitutions follows the chain as printed.

T1: recombinant purified human RGM A (R&D Systems Cat#2459-RM) (human) (UniProt Q96B86)
T1 sequence: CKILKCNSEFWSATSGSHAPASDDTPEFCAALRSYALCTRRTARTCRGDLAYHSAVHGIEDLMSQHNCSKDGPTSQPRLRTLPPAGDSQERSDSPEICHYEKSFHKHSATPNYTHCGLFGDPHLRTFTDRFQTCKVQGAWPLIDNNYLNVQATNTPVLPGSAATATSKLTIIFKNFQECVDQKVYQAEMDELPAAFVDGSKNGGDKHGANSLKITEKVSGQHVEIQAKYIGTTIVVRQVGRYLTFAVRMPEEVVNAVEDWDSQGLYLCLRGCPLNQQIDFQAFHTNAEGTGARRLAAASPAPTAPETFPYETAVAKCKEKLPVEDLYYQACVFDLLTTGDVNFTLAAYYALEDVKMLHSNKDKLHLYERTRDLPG

B1: rat anti-human RGM A monoclonal antibody 8D1 (antibody, V domains shown)
VH: EVQLQQSGPELVKPGTSVKMSCKTSGYTFTSYVMHWVKQKPGQGLEWIGYIIPYNDNTKYNEKFKGKATLTSDKSSSTAYMELSSLTSEDSAVYYCARRNEYYGSSFFDYWGQGTTLTVSS
VL: DIQMTQSPASLSASLEEIVTITCQASQDIDNYLAWYHQKPGKSPRLLIYGATNLADGVPSRFSGSRSGTQFSLKINRLQIEDLGIYYCLQGYIPPRTFGGGTKLELKR
B2: rat anti-human RGM A monoclonal antibody 5F9 (antibody, V domains shown)
VH: EVQLVESGGGLVQPGSSLKLSCVASGFTFSNYGMNWIRQAPKKGLEWIGMIYYDSSEKHYADSVKGRFTISRDNSKNTLYLEMNSLRSEDTAIYYCAKGTTPDYWGQGVMVTVSS
VL: DVVLTQTPVSLSVTLGDQASMSCRSSQSLEYSDGYTFLEWFLQKPGQSPQLLIYEVSNRFSGVPDRFIGSGSGTDFTLKISRVEPEDLGVYYCFQATHDPLTFGSGTKLEIKR
B3: h5F9.1 (antibody, human IgG1, V domains shown)
VH: EVQLVESGGGVVQPGRSLRLSCAASGFTFSNYGMNWVRQAPGKGLEWVAMIYYDSSEKHYADSVKGRFTISRDNSKNTLYLQMNSLRAEDTAVYYCARGTTPDYWGQGTMVTVSS
VL: DIVMTQTPLSLSVTPGQPASISCRSSQSLEYSDGYTFLEWYLQKPGQSPQLLIYEVSNRFSGVPDRFSGSGSGTDFTLKISRVEAEDVGVYYCFQATHDPLTFGQGTKLEIKR
B4: h5F9.3 (antibody, human IgG1, V domains shown)
VH: B3 VH with V11L, R16G, A49S, R98K
VL: B3 VL
B5: h5F9.11 (antibody, human IgG1, V domains shown)
VH: B3 VH with V11L, R16G, A49S, R98K
VL: B3 VL with I2V, T7S, S12P, P15L
B6: h5F9.7 (antibody, human IgG1, V domains shown)
VH: B3 VH with V11L, R16G, A49S, R98K
VL: B3 VL with I2V, T7S, S12P, P15L, Y41F, L42Q, K44R, Q50R, L51R
B7: h5F9.9 (antibody, human IgG1, V domains shown)
VH: B3 VH
VL: B3 VL with I2V, T7S, S12P, P15L
B8: h5F9.5 (antibody, human IgG1, V domains shown)
VH: B3 VH
VL: B3 VL with I2V, T7S, S12P, P15L, Y41F, L42Q, K44R, Q50R, L51R
B9: h5F9.6 (antibody, human IgG1, V domains shown)
VH: B3 VH with V37I, V48I, A49G, R98K
VL: B3 VL with I2V, T7S, S12P, P15L, Y41F, L42Q, K44R, Q50R, L51R
B10: h5F9.4 (antibody, human IgG1, V domains shown)
VH: B3 VH with V11L, R16G, V37I, V48I, A49G, R98K
VL: B3 VL
B11: h5F9.22 (antibody, human IgG1, V domains shown)
VH: B3 VH with V37I, V48I, A49G, R98K
VL: B3 VL with I2V, M4L, T7S, S12P, P15L
B12: h5F9.26 (antibody, human IgG1, V domains shown)
VH: B3 VH with V11L, R16G, V37I, V48I, A49G, R98K
VL: B3 VL with I2V, M4L, T7S, S12P, P15L
B13: h5F9.20 (antibody, human IgG1, V domains shown)
VH: B3 VH with V37I, V48I, A49G, R98K
VL: B3 VL with I2V, M4L, T7S, S12P, P15L, Y41F, L42Q, K44R, Q50R, L51R
B14: h5F9.2 (antibody, human IgG1, V domains shown)
VH: B3 VH with V37I, V48I, A49G, R98K
VL: B3 VL
B15: h5F9.12 (antibody, human IgG1, V domains shown)
VH: B3 VH with V11L, R16G, V37I, V48I, A49G, R98K
VL: B3 VL with I2V, T7S, S12P, P15L
B16: h5F9.8 (antibody, human IgG1, V domains shown)
VH: B3 VH with V11L, R16G, V37I, V48I, A49G, R98K
VL: B3 VL with I2V, T7S, S12P, P15L, Y41F, L42Q, K44R, Q50R, L51R
B17: h5F9.10 (antibody, human IgG1, V domains shown)
VH: B3 VH with V37I, V48I, A49G, R98K
VL: B3 VL with I2V, T7S, S12P, P15L

Each binder was assayed against T1, recombinant purified human RGM A (R&D Systems Cat#2459-RM) (human) (assay: direct ELISA: plate coated with hRGM A 2 µg/mL, biotinylated antibody in 1:5 dilutions, streptavidin-HRP, TMB, OD 450).

EC50 (read off the curve) | Binder
0.2 mg/L | B1
0.08 mg/L | B2

What follows are binders tested against rat RGM A expressed on BAF3 cells (rat) (assay: FACS on BAF3-ratRGMA stable cell line, unlabelled antibody, anti-rat IgG PE; unstained cells 4.71).

Median, FL2-H | Binder
5.37 | B1
29.6 | B2

Each binder was assayed against T1, recombinant purified human RGM A (R&D Systems Cat#2459-RM) (human) (assay: competition ELISA on coated hRGMA; competitor: biotinylated chimeric 5F9).

IC50 | Binder
> 10 mg/L | B3
> 10 mg/L | B4
> 10 mg/L | B5
> 10 mg/L | B6
> 10 mg/L | B7
> 10 mg/L | B8
> 10 mg/L | B9
> 10 mg/L | B10
> 2 mg/L | B11
> 2 mg/L | B12
> 2 mg/L | B13
> 10 mg/L | B14
> 10 mg/L | B15
> 10 mg/L | B16
> 10 mg/L | B17
